Data as given in article PMC9008041.

Assays:
[1] = molecular target: recombinant N-terminal protein of MUC5B (NT5B) (human) (UniProt Q9HC84); assay: rate-zonal centrifugation on sucrose gradients; recombinant MUC5B sub-domain (NT5B, CT5B 400 μg/mL) incubated 1 h at 37 °C with 1 mM CsA, 5-20% (w/v) sucrose in PBS pH 7.4, 210,000 g, 15 °C, 2 h 30 min; protein detected by anti-His slot blot (NT5B, CT5B) or SDS-PAGE (Cys7)
[2] = molecular target: recombinant C-terminal protein of MUC5B (CT5B) (human); assay: as above
[3] = molecular target: purified polymeric mucin MUC5B (human) (UniProt Q9HC84); assay: rate-zonal centrifugation on sucrose gradients; purified MUC5B with 200 μM CsA in PBS at pH 5.5, compared with pH 7.4; 10-35% (w/v) sucrose; MUC5B detected by slot blot
[4] = molecular target: recombinant N-terminal protein of MUC5B (NT5B) (human) (UniProt Q9HC84); assay: rate-zonal centrifugation on sucrose gradients; recombinant NT5B or CT5B with 200 μM CsA in PBS at pH 5.5, compared with pH 7.4; 5-20% (w/v) sucrose; detected by anti-His slot blot
[5] = molecular target: purified polymeric mucin MUC2 (human) (UniProt Q02817); assay: rate-zonal centrifugation on sucrose gradients; purified polymeric mucin incubated 1 h at 37 °C with cyclic peptide (1 mM; CsA also 200 μM and 2 mM; MUC5B 100, 200 or 400 μg/mL), 10-35% (w/v) sucrose in PBS pH 7.4, 210,000 g, 15 °C, 1 h 15 min; mucin detected in fractions and pellet by slot blot; the peptide itself is not detected
[6] = molecular target: purified polymeric mucin MUC5B (human) (UniProt Q9HC84); assay: as above
[7] = molecular target: purified polymeric mucin MUC5AC (human) (UniProt P98088); assay: as above

- percent of NT5B in the pellet (1 mM CsA) [1]: 16.3%
- percent of CT5B in the pellet (1 mM CsA) [2]: 29.1%
- fold increase of MUC5B in the pellet at pH 5.5 against pH 7.4 (200 μM CsA) [3]: 3.6 fold
- fold increase of NT5B in the pellet at pH 5.5 against pH 7.4 (200 μM CsA) [4]: 4.2 fold
- percent of MUC2 in the pellet (1 mM CsA) [5]: 14.6%
- percent of MUC5B in the pellet (1 mM CsA, MUC5B 100 μg/mL) [6]: 18.6%
- percent of MUC5B in the pellet (1 mM CsA, MUC5B 200 μg/mL) [6]: 13.3%
- percent of MUC5B in the pellet (2 mM CsA, MUC5B 200 μg/mL) [6]: 11.8%
- percent of MUC5AC in the pellet (1 mM CsA) [7]: 8.2%
Substance: cyclosporin A (peptide)
